Measurements as given in patent US20030166537A1, “Use of GDNF for treating corneal defects” (Biopharm Gesellschaft Zur Biotechnologischen Entwicklung …, priority 1999, published 2003).

Experiments:
Type in all cases: cell-based
[1] = test system: primary rabbit corneal epithelial cells; test: single cell clonal growth assay (colony formation, clonal proliferation); conditions: 250 ng/ml
Text: In order to evaluate the effect of GDNF on corneal proliferation, recombinant human GDNF was used (R&D, Minneapolis, Minn., USA). For the evaluation of the effect on corneal epithelial proliferaton a single cell clonal growth model was utilized which allows to determine the effect of the given growth factor on both colony formation as well as clonal expansion (Kruse et al., 1991). New Zealand white rabbits were housed and treated according to the ARVO Resolution of Animals in Research and under observation of German Federal Laws and the laws of the State of Baden-Württemberg. Prior to sacrifice with an intravenous overdose of pentobarbital, they received an intramuscular injection of xylazine hydrochloride and ketamine hydrochloride. The details of the clonal growth assay are described in Kruse et al. (1991). 5000 viable cells were seeded in each 16 mm dish in serum-free medium MCDB 151 with a supplement (S) of insulin (5 μg/ml), transferrin (5 μg/ml), selenium (5 ng/ml) and hydrocortisone (5 μg/ml) (all from Sigma, Deisenhofen, Germany). […] This quantification was facilitated by the use of dishes which contained a grit on the bottom which is roughly 2 mm wide (from Sarstedt, Newton, N.C., USA). For data collection the entire surface area of four randomly selected dishes for each condition was screened. Furthermore, the number of cells per colony was determined in 75 randomly selected colonies for each condition. Furthermore, the total number of cells/dish was calculated in order to carry out an evaluation for artemin. In order to stimulate the cellular proliferation, GDNF (50 or 200 ng/ml) or artemin (250 ng/ml) was added to the medium. In order to estimate the rate of proliferation after 12 days (a time when neighbouring colonies started to grow into each other and, therefore, prevented numerical quantification) dishes were fixed in −20° C. methanol and stained with methylene blue.
All experiments examining the effect of GDNF on corneal proliferation were performed in triplicate with cells from different donors. The influence of growth factor on colony formation, colony size and cell number was studied using one-way analysis of variance. […] Student's t-test was employed to determine which differences were significant after analysis of variance.

[2] = test system: primary rabbit corneal epithelial cells; test: in vitro wound healing assay (scratch wound), artemin; conditions: 100 ng/ml; within 6 h; control about 20%
Protocol: For in vitro wound healing assays primary corneal epithelial cells and cells from the corneal epithelial cell line were seeded at a density of 5×10^5 onto 60 mm plastic dishes with 2 mm grid (Sarstedt, Numbrecht, Germany) and cultured for 2 days until subconfluency. For experiments with artemin primary cultured rabbit corneal epithelial cells were used. These cells had been isolated with Dispase (1,2 U/ml) and trypsin/EDTA. Rabbit cells had been cultured in medium 500 with additives (Cascade Biologies).
The cell layer was injured under the microscope by inducing several parallel scratches with a soft plastic cell scrubber (Falcon, Becton and Dickinson, Heidelberg, Germany). The tip of the scrubber was cut and measured about 1 mm and consequently the width of the scratch in the cell layer was also about 1 mm. Selected areas in the dishes were marked with a very fine marker pen and consecutive images were taken at different time points at 5×magnification under an inverted phase contrast microscope (Axiovert 25, Zeiss, Jena, Germany) equipped with a video camera. […] For each condition four representative areas were evaluated within three dishes. […] 18 hours later the mean diameter of the same scratch was calculated again and expressed in percent of the diameter at the beginning of the experiment.

[3] = test system: FAK, Pyk2, cRaf, MEK1, Erk 1 and 2, Elk, RSK; test: western blot of phosphorylated intracellular signaling proteins in corneal epithelial cells; conditions: 250 ng/ml artemin for 10, 20, 40 and 60 minutes; human corneal epithelial cells

B1: artemin: GDNF family member, also referred to as enovin or neublastin (SEQ ID NO 5) (protein)
chain: CRLRSQLVPVRALGLGHRSDELVRFRFCSGSCRRARSPHDLSLASLLGAGALRPPPGSRPVSQPCCRPTRYEAVSFMDVNSTWRTVDRLSATACGC
modifications: artemin
- total number of cells per dish ([1]; control 200±98 cells, p<0.001): significantly increased
- total number of colonies ([1]; day 6, control 40±20): 79±38
- gap in the cell monolayer filled [2]: 29±8%
- phosphorylated Erk 1 and 2 [3]: gradually increased
- phosphorylated MEK [3]: increasing amount
